In US20230257452A1 (GTINVENT, published 2023):
Read-outs that look alike come from different tables or passages of the source. Where no end group is shown, it is not given here. The star is where a group is joined. Biotin = O=C1N[C@H]2[C@H](CS[C@H]2CCCCC(=O)*)N1

Assays:
[1] = biological target: T1, full length human tau protein (2N4R, isoform Tau-F, 441 amino acids) (human, UniProt P10636 1-758); assay: sandwich ELISA, S1D12 mAb capture, hT40 titrated, detection scAb, chemiluminescent
T1 construct: also called hT40; htau40
T1 sequence (P10636 other isoform, or with tags, fused parts or gaps limits assumed): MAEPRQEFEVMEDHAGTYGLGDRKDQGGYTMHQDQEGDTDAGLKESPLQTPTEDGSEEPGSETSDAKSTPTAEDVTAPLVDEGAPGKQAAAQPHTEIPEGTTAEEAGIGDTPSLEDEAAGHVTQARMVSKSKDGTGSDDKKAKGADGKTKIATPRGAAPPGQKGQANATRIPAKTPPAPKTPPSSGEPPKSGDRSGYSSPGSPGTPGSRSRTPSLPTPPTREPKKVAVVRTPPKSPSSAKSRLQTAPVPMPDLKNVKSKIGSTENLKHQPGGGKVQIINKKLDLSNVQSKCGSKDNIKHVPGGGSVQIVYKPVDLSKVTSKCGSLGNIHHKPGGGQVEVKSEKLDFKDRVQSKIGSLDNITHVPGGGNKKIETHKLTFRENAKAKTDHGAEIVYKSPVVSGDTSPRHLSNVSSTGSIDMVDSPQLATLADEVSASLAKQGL
Procedure: (§1) Full length tau (hT40), at 1 μg/ml starting concentration was added to designated wells and double diluted across rest of the plates and left to incubate at R/T for 1 h. A series of detection scAbs with varying epitope recognition properties were added at 10 μg/ml to designated wells (FIG. 22). For colourimetric detection HRP conjugated anti-HuCk secondary antibody was used and the resulting immunoreaction was developed and absorbance at 450 nm measured as described previously. Cut-off point for a positive binding event was an absorbance value of 0.3 following background subtraction. In order to enhance the assay sensitivity, a chemiluminescent detection method was adopted where 50 μL SuperSignal ELISA Femto Substrate (Thermo Scientific) was added to each well following incubation with anti-HuCK HRP antibody and subsequent washing. The luminescence was read using Clariostar Plus microplate reader. A further modification to this protocol was done where various detection scAbs were directly conjugated with HRP and detected using chemiluminescent protocol as before.

[2] = biological target: T1, full length human tau protein (2N4R, …); assay: sandwich ELISA, S1D12 mAb capture, hT40 titrated, detection scAb at 10 ug/ml, colourimetric
Procedure: as §1

dGAE (tau 297-391) [3] = biological target: T2, dGAE (tau 297-391) (human, UniProt P10636 614-708); assay: tau-tau immunoassay: scAb preincubated with 100 nM dGAE; blocked ligand: plate-bound dGA (1000 nM); bound dGAE detected with E2E8
T2 construct: also called dGAE95
T2 sequence (P10636 614-708 limits assumed): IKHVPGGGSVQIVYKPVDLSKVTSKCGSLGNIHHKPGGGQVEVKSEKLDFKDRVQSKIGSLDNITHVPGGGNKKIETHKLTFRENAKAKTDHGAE
Procedure: The adapted method is as follows: dGA (1000 nM) was adsorbed to a Nunc 96-well MaxiSorp plate and incubated for 1 h at 37° C. Plates were subsequently washed 3 times with PBST which was performed after each 1 h incubation. The plates were blocked with 2% (w/v) dried milk powder in PBS for 1 h at 37° C. […] The secondary antibody used was HRP-conjugated Anti-mouse IgG (1:1000 dilution, Sigma) and incubated at RT for 1 h. The plate was subsequently developed, and readings taken at absorbance 450 nm.

[4] = biological target: T1, full length human tau protein (2N4R, …); assay: ELISA, hT40 coated, scAb titrated
Tau 337-368 = Tau 337-368 (human); assay: ELISA, antigen coated, scAb titrated; panel title 337-368
Tau 337-368 (human), sequence (chain, as listed by the source): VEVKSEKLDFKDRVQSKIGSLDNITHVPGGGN
Source text: (§2) The plates were blocked with 2% MPBS and scAb samples added at desired starting concentrations and double diluted across the plate. Binding was detected using anti-Human C Kappa HRP conjugated secondary antibody and the resulting immunoreaction was developed and absorbance values measured as described above.

[5] = biological target: T3, N biotin 341-353 tau peptide (human); assay: ELISA, biotinylated peptide on streptavidin, scAb titrated [B]
T3 peptide: Biotin-SEKLDFKDRVQSK
Procedure: Briefly, 5 μg/ml streptavidin (Thermo Fisher) was adsorbed to Nunc 96-well MaxiSorp plates and following incubation at 37° C. for 1 h, the plates were washed as normal and blocked with 2% MPBS. […] Subsequently, test scAbs at starting concentrations of 100-500 nM was added and double diluted across the plate for each peptide and incubated for 1 h at 37° C. Rest of the ELISA was conducted as described above and the plates were read at absorbance 450 nm. Immunoreactivity of the scAb of interest was quantified as the % of scAb was bound for each peptide at a chosen concentration (FIG. 15-20).

dGAE (tau 297-391) [6] = biological target: T2, dGAE (tau 297-391); assay: ELISA, antigen coated, scAb titrated
Source text: as §2

[7] = biological target: T1, full length human tau protein (2N4R, …); assay: ELISA, hT40 coated, scAb titrated; remark: listed apart in the source
[8] = biological target: T1, full length human tau protein (2N4R, …); assay: ELISA
Source text: as §2

Tau 1-319 = Tau 1-319 (human, UniProt P10636 1-636); assay: ELISA
Tau 1-319, sequence (P10636 other isoform, or with tags, fused parts or gaps): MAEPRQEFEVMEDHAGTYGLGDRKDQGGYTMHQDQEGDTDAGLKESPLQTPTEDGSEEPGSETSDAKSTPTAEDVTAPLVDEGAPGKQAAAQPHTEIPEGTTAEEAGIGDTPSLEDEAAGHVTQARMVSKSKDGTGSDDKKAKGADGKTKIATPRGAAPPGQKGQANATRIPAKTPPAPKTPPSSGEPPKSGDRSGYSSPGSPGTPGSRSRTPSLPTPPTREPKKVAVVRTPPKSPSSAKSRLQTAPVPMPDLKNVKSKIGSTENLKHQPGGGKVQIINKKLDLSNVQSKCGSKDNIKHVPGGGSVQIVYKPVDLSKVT
Source text: as §2

dGAE aggregates = biological target: T4, dGAE aggregates (human, UniProt P10636 614-708, limits assumed); assay: capture ELISA, mAb coated at 1 ug/ml, dGAE aggregates titrated, S1G2 scAb detection
T4 construct: 100 µM dGAE aggregated with DTT at 37 °C, 700 rpm, 24 h; also called aggregated dGAE
T4 sequence (P10636 614-708 limits assumed): as the sequence (P10636 614-708 limits assumed) above

B1: CA4 scAb (scFv)
scFv: QVQLQESGPSLVKPSQTLSLTCTVSGFSLTSYSVYWVRQAPGQALEWISIMYASGRVDYNPALKSRLSITRDTSKSQFSLSLSSVTTEDTAVYYCTRGIENWGPGLLVTVSSEGKSSGASGESKVDDDIQVTQSPSSLSASLTERVSITCRTSQSVNNYLSWYQQKPGQAPKLLIYYATRLYTDVPSRFSGSGSGTDYTLTITSLEADDTATYYCLQYDSTPLAFGGGTNVEIK
notes: not shown: human C kappa domain and hexa-His tag of the scAb format
LoD (ng/ml) chemiluminescence detection [1]: 0.37 ng/mL | LoD (ng/ml) colourimetric detection [2]: 6 ng/mL | B50 (dGAE (tau 297-391) [3]): 221 nM

B2: S1D12 scAb (scFv)
scFv: QVQLQESGPSLVKPSQTLSLTCTVSGFSLNNNAVGWVRQAPGKVPESLVGCSSDGTCYYNSALKSRLDITRDTSKNQISLSLSSVTTDDAAVYYCTRGHYSIYGYDYLGTIDYWGPGLLVTVSSEGKSSGASGESKVDDQAVLTQPSSVSGSLGQRVSITCSGSSSNVGGGNSVGWYQHLPGSGLKTIIYDTNSRPSGVPDRFSGSRSGNTATLTINSLQAEDEGDYYCVTGDSTTHDDLVGSGTRLTVLG
notes: as for B1
EC50 (read off the curve) [4]: ~0.9 µg/mL | binding result (Tau 337-368): binds | binding result [5]: binds | B50 (dGAE (tau 297-391) [3]): 80 nM

B3: E2B7 scAb (scFv)
scFv: QVQLQESGPSLVKPSQTLSLTCTVSGFSLTSWGVAWVRQAPGKALEWLGTMRSGGGTEYNPALKSRLSITRDTSKSQVSLSLSSVTTEDMAMYYCARGYLSGIHYAWGRGLLVSVSSEGKSSGASGESKVDDQAVLTQLSSVSGSLGQRVSITCSGSSSNVGDGDYVGWFQQLPGSAPKLLIYSARNRASGVPDRFSGSRSGNTATLTITSLQAEDEADYYCASIDTSRSHIFGSGTRLTVLG
notes: as for B1
binding result (dGAE (tau 297-391) [6]): binds

B4: CB7 scAb (scFv)
scFv: QVQLQESGPSLVKPSQTLSLTCTVSGFSLTNYRVGWVRQAPGKALEWVSNIRSGGTTWYNPALKSRLSITADTSKSQVSLSLSSVTTEDTAVYYCARDSSGDLYAYDYWGPGLLVTVSSEGKSSGASGESKVDDQAVLTQPSSVSRSLGQSVSMTCSGSSSNVGYGNYMAWFQQVPGSAPKLLIYGATSRASGVPDRFSGSRSGNTATLTISSLQAEDEADYYCASYDSTSGGVFGSGTRLTVLG
notes: as for B1
LoD (ng/ml) chemiluminescence detection [1]: 3.33 ng/mL | LoD (ng/ml) colourimetric detection [2]: 15 ng/mL

B5: S1G10 scAb (scFv)
scFv: QVQLQESGPSLVKPSQTLSLTCTVSGFSLTSNSVGWVRQAPGKAPEWVAGIDTDGEEGYNPALNSRLSITRDTSKSQVSLSLSSVTSEDTAVYYCGRSYRADGLAYGYVQAIDYWGPGLLVTVSSEGKSSGASGESKVDDQAVLTQPSSMSGSLGQRVSITCSGSFIGISSVGWFQQLPGSGLRTIIVASDGRPSGVPDRFSMSKSGNTATLTISSLQAEDEADYFCGSSDRTQYTGVFGSGTRLTVLG
notes: as for B1
LoD (ng/ml) chemiluminescence detection [1]: 0.12 ng/mL | LoD (ng/ml) colourimetric detection [2]: 2 ng/mL | B50 (dGAE (tau 297-391) [3]): 207 nM

B6: S1F4 scAb (scFv)
scFv: QVQLQESGPSLVKPSQTLSLTCTVSGFSLSSNSVGWVRQAPGKAPEWVAGIDTDGEEGYNPALNSRLSITRDTSKSQVSLSLSSVTSEDTAVYYCVRSYRADGLAYGYVQAIDYWGPGLLLTISSEGKSSGASGESKVDDQAVVTQPSSVSGSLGQRVSITCSGSFIGISSVGWFQQLPGSGLRTVIVASDGRPSGVPDRFSNSKSGNTATLTISSLQAEDEADYFCGSSDRTQYTGVFGSGTRLTVLG
notes: as for B1
EC50 (read off the curve) [7]: ~0.05 µg/mL

B7: CC7 scAb (scFv)
scFv: QVQLQESGPSLVKPSQTLSLTCTVSGFSLTSNAVIWVRQAPGKAPEWVALIDVDGDAAYDPALKSRLSITRDTSKSQVSLSLRSVTTEDTAVYYCARDYGSWGYVSDIDYWGPGLLVTVSSEGKSSGASGESKVDDRVVRTQPSSVSGSLGQRVSITCSGSYITGSSVGWFQQVPGSGLKTVIYDNNDRPSGVPDRFSGSKSGDTATLTISSLQAEDEADYYCASYDTSNIGLFGSGTRLTVLG
notes: as for B1
LoD (ng/ml) chemiluminescence detection [1]: 3.33 ng/mL | LoD (ng/ml) colourimetric detection [2]: 6 ng/mL

B8: CA12 scAb (scFv)
scFv: QVQLQGSGPSLVKPSQTLSLTCTVSGFSFDSYYVGWVRQAPGKALEWLGNIYSTGRAFYNPALKSRLSITRDTSKSQVSLSVSSVTIEDTALYYCVRGSYYHGGGNGMVDFFDYWSPGLLVTVSSEGKSSGASGESKVDDQVVRTQPSSVSGSLGQRVSITCSGSSSNVGYGNYVGWFQQVPGSAPKLLIYAATSRASGVPDRFSGSRSGNTATLTIDSLQAEDEADYYCSSYQRGNTGVFGSGTRLTVLG
notes: as for B1
EC50 (read off the curve) [7]: ~0.02 µg/mL | B50 (dGAE (tau 297-391) [3]): 59 nM

B9: CA7 scAb (scFv, V domains shown)
VH: RVRLQGSGPSLVKPSQTLSLTCTVSGFSFDSYYVGWVRQAPGKALEWLGNIYSTGRAFYNPALKSRLSITRDTSKSQVSLSVSSVTIEDTALYYCVRGSYYHGGGNGMVDFFDYWSPGLLVTVSS
VL: QVVRTQPSSVSGSLGQRVSITCSGSSSNVGYGNYVGWFQQVPGSAPKLLIYAATSRASGVPDRFSGSRSGNTATLTIDSLQAEDEADYYCSSYQRGNTGVFGSGTRLTVLG
notes: tested as scAb (VH-linker-VL-HuCk-His in one chain)
binding result [8]: binds | binding result (Tau 1-319): binds

B10: E2E8 mAb (antibody, mouse IgG2a, V domains shown)
VH: QVQLQESGPSLVKPSQTLSLTCTVSGFSLTDRGVAWVRQAPGKALEWVGTMRSGGTIDYNPALKSRLSITRDTSKSQVFLSLSSVTTEDMAMYYCARGYLSGDRYAWGRGLLVTVSS
VL: QAVLTQPSSVSKSLGQSVSIACSGSRSDIGYGNYVSWFQQIPGSAPKLLIYDTNTRASGVPDRFSGARSGNTATLTINSLQAEDEADYYCANIDSSRSHLFGSGTRLTVLG
notes: sheep-mouse (IgG2a) chimeric mAb
binding result (dGAE aggregates): binds

B11: 412E10 scAb (scFv)
scFv: QVQLQESGPSLVKPSQTLSLTCTVSGFSVISDSVAWVRQAPGKVPEWLGASGSSGNKYYNPALKSRLSITRDTSKSQVSLSLSSVTTEDTAVYYCARGIIAGVDVWGRGLLVTVSSEGKSSGASGESKVDDQAVLTQPSSVSGSLGQRVSITCSGSSSNVGYGNYVGWYQQVPGSAPKLLIYGTAIRASGVPDRFSGSRSGDTATLTITSLQAEDEADYYCASYQSNYAFFGSGTRLTVLG
notes: as for B1
LoD (ng/ml) chemiluminescence detection [1]: 0.37 ng/mL | LoD (ng/ml) colourimetric detection [2]: 20 ng/mL
